Experiments:
MotA [1] = biological target: T1, MotA (Enterobacteria phage T4, UniProt P22915 1-211); experiment: competition; EMSA vs labeled N6; EMSA: 0.01 pmol 32P-DNA, 1.7 pmol MotA, native 12% PAGE in 1x TBE at 4 C, other conditions as in ref 14; SPR: biotin-DNA on neutravidin chip, buffer as in ref 2
T1 sequence: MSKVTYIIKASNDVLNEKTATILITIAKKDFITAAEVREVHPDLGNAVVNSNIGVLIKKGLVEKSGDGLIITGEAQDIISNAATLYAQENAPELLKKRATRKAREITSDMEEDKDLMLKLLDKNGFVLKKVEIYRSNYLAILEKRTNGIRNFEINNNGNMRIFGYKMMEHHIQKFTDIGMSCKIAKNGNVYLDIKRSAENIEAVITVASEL

[2] = biological target: the molecule itself; experiment: crystal structure; MotA^linker/CTD mixed with 22 bp MotA box DNA at 1.15:1 DNA:protein; 23% PEG 8000, 0.12 M sodium acetate, 0.1 M sodium cacodylate pH 6.5, 3% glycerol; space group P6_(1), 2.96 Å; four protein copies and two DNA duplexes in the asymmetric unit
MotA [3] = biological target: T1, MotA; experiment: EMSA; EMSA: 0.01 pmol 32P-DNA, 1.7 pmol MotA, native 12% PAGE in 1x TBE at 4 C, other conditions as in ref 14; SPR: biotin-DNA on neutravidin chip, buffer as in ref 2
MotA [4] = biological target: T1, MotA; experiment: EMSA; steep curve, value uncertain; EMSA: 0.01 pmol 32P-DNA, 1.7 pmol MotA, native 12% PAGE in 1x TBE at 4 C, other conditions as in ref 14; SPR: biotin-DNA on neutravidin chip, buffer as in ref 2
MotAlinker/CTD = biological target: T2, MotAlinker/CTD (Enterobacteria phage T4, UniProt P22915 93-211); experiment: X-ray crystallography; cognate complexes A and C; further non-cognate copies B and D on the opposite face; 2.96 A; EMSA: 0.01 pmol 32P-DNA, 1.7 pmol MotA, native 12% PAGE in 1x TBE at 4 C, other conditions as in ref 14; SPR: biotin-DNA on neutravidin chip, buffer as in ref 2
T2 sequence: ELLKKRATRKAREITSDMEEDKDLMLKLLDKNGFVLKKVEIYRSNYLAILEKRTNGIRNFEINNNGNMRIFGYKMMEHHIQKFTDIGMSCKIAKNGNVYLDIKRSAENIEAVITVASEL

B1: EMSA mutant competitor (dsDNA)
DNA 1: AATTATTATACTTAGATTA
DNA 2: TAATCTAAGTATAATAATT
binding result (MotA [1]): no binding

B2: MotA^linker/CTD (C-terminal domain and linker region of MotA, amino acids 93-211) (domain or fragment, bacteriophage T4, UniProt P22915 93-211, looked up)
chain: T2 sequence
binding result [2]: binds

B3: EMSA 19-mer unmodified (dsDNA)
DNA 1: AATTATTTGCTTTAGATTA
DNA 2: TAATCTAAAGCAAATAATT
Kd (MotA [3]): ~140 nM

B4: EMSA 19-mer GHMe/unmod (dsDNA)
DNA 1: AATTATTTGCTTTAGATTA
DNA 2: TAATCTAAAGCAAATAATT
modifications: beta-D-glucosyl-5-hydroxymethyl-dC at top C10
Kd (MotA [4]): ~20 nM

B5: 22-mer MotA box DNA (crystal) (dsDNA)
DNA 1: GAAGCTTTGCTTAATAATCCAC
DNA 2: GTGGATTATTAAGCAAAGCTTC
binding result (MotAlinker/CTD): binds
